From patent publication US20230036503A1, “Fusion Protein, Amino Acid Sequence Thereof, Coding Nucleotide Sequence Thereof, Preparation Method Thereof and Use Thereof” (priority 2019, published 2023)
Entries after “also recorded” stand apart in the source; their conditions may differ.

Key:
[1] = tested on: callose accumulation of Arabidopsis; test: Intensity of immune responses of various fusion proteins: callose fluorescence in Arabidopsis leaves quantified by ImageJ; assay type: in vivo; conditions: 100 nmol final concentration
Procedure: Computation was conducted through image processing software ImageJ according to obtained callose accumulation fluorescence images, and the immune activation ability of the fusion proteins to the plants was quantified by virtue of the fluorescence intensity. Computing methods were as follows:
Measured IntDen=Integrated Density=Integrated Optical Density;
Measured Area=Image Area;
MD(mean optical density)=IntDen/Area.

Magaporthe grisea = assay type: in vivo; conditions: rice leaves, 100 nM
[2] = tested on: Tobacco mosaic virus (TMV); test: Resistance of tobacco plants to Tobacco mosaic virus (disease grading, disease index, control effect)
Procedure: The experiment was divided into an experimental group and a control group (with 20 lines of tobacco plants in each group). After the experimental group was injected with a recombinant protein, viruses were inoculated to the experimental group; and after the control group was injected with the sterile water, the viruses were inoculated to the control group. It was inoculated through the following steps:
(1) Fresh leaves infected with TMV were added to a small amount of sterilized phosphate buffer (1:200) and were ground in a mortar and filtered with sterilized gauze to remove the residues of the infected leaves. The above fresh juice was prepared as an inoculum and a concentration of the inoculum of the TMV was adjusted to obtain an aqueous solution of TMV.
(2) When tobacco seedlings were in the 4-5 true leaves period, fully expanded true leaves were selected; a suitable amount of quartz sands were uniformly scattered on the leaf surfaces; and the leaf surfaces were slightly rubbed by an absorbent ball dipped with the aqueous solution of TMV for 1-2 times and then immediately washed with water.
(3) After inoculation for 21 days, the morbidity of tobacco plants was observed. With each plant as a unit for assessment, the grading standard was as follows:
Grade 0: freedom from disease
Grade 3: newborn leaf had yellow-green stripes parallel to the leaf vein with slightly curling;
Grade 7: plant was dwarfed, leaf had yellowish-white strips with curling, and newborn leaves were twisted and prolapsed and could not be normally expanded; and
Grade 9: plant was dwarfed seriously and subjected to chlorina or died.
A disease index and the control effect were computed with the following methods:
Disease index=[Σ(number of infected plants in various grades×relative grade value)/(total number of plants investigated×9)]×100;
Control effect (%)=[(control disease index-treatment disease index)/control disease index]×100.

[3] = tested on: oxidative burst immune response in corn leaves; test: Reactive oxygen species / oxidative burst in corn leaves (DAB staining); assay type: in vivo; conditions: 100 nM, corn leaves soaked 48 h, FIG. 4
Procedure: Oxidative burst was considered as one of earliest responses of plants to pathogenic microorganisms and played an important role in defense responses of the plants. […] After the plants were infected by the pathogenic microorganisms, the reactive oxygen species could be produced and accumulate, and oxidative burst could be caused. With plant corns as a material and the reactive oxygen species as an immune index, the immune activation ability of 100 nM fusion protein His-MP7 was analyzed. A specific experimental operation was as follows:
Two-week old corn leaves were taken, the intermediate portion of each leaf was taken, shorn with a length of 5 cm and immersed into 1 μg/mL auxin 6BA solution. It was added with the fusion protein His-MP7 with a final concentration of 100 nM, with an aqueous solution of auxin 6BA being served as a blank control. The intermediate portions were soaked for 48 h, stained for 12 h using 1 mg/mL DAB solution, eluted for 12 h by a washing buffer (ethyl alcohol:acetic acid:glycerin=3:1:1) and observed after being placed for 30 min.

[4] = tested on: callose accumulation of Arabidopsis; test: Callose accumulation in Arabidopsis leaves infiltrated with fusion protein or PAMP polypeptide (aniline blue staining); assay type: in vivo
Procedure: In immune responses of plant cells, callose might accumulate. The callose might enhance the mechanical strength of plant cell walls and block channels through which pathogens spread between the cells, thereby limiting invasion of pathogenic microorganisms. With a model plant Arabidopsis as a material and callose accumulation as immune index, the immune activation abilities of different concentrations of fusion proteins His-MP7 were analyzed and were compared to that of a single PAMP polypeptide. A specific experimental operation was as follows:
Final concentrations of the fusion protein His-MP7 and a polypeptide flg22 were adjusted to be 1 μM, 100 nM and 10 nM respectively, with water being served as a control. Four-week old Arabidopsis leaves were infiltrated with an injection syringe permeation method for 12 h, the treated leaves were collected and put in a 6-well plate, and a suitable amount of washing buffer was added for 4 h incubation. The washing buffer was substituted by an aniline blue staining solution with a final concentration of 0.1 mg/mL for staining at a room temperature in the dark for 1 h, and the callose accumulation was observed using a 10 times objective lens of a fluorescence microscope. Each treatment contained three biological replicates with three repeated experiments.
A final concentration of the fusion protein His-MP7 and each of polypeptides flg22, nlp20, elf18, pip1, pep1, csp22 and flgII-28 was adjusted to be 100 nM, with csp22 and flgII-28 being served as negative controls. The four-week old Arabidopsis leaves were infiltrated with an injection syringe permeation method; and a sample treatment method was the same as mentioned above.

[5] = tested on: Pseudomonas syringae DC3000; test: Resistance of Arabidopsis to DC3000 pathogenic bacteria (colony growth in injected leaves)
Procedure: (1) A strain DC3000 of Pseudomonas syringae was inoculated to 20 mL of SOC+str (streptomycin) liquid medium for overnight culture for 14-16 h at 28° C., OD600 was determined, and a product was subjected to gradient dilution until OD600 was 0.00005 to obtain a bacterial solution.
(2) The fusion protein His-MP7 was added in the bacterial solution until a final concentration was 100 nM, and a bacterial solution, to which water was added, was served as a control. Meanwhile, four-week old healthy Arabidopsis leaves were injected with the bacterial solution and were sampled at Day 0 (four leaves from one plant) and Day 3 (five plants, two leaves from each plant) respectively. Each leaf was punched by a puncher. The punched small discs were taken; 500 μL of 10 mM MgCl2 was added at Day 0; the small discs were ground in a 1.5 mL EP tube; and 50 μL of each of four samples in the same treatment was spotted on one SOC+str (streptomycin) solid plate (the plate required to be blow-dried, and then the shape of each spotted sample could be kept) and cultured for 16-24 h at 28° C. Samples were photographed and observed for statistics of colony growth.
(3) At Day 3, the two leaves on each plant of the five plants were punched to take small discs similarly; 250 μL of 10 mM MgCl2 was added; and the small discs were ground in the 1.5 mL EP tube and diluted by MgCl2 stepwise until 1×10^−5.

[6] = 21 days after TMV inoculation, 20 plants per group

Molecule	MD (mean optical density = IntDen/Area) of callose fluorescence ([1]; H2O 0.002-0.003)	Immune activation ([1]; H2O: No)	scab area percentage (Magaporthe grisea; 3-4 days, untreated 11.6%) [%]	infection rate of Magaporthe grisea lowered by (Magaporthe grisea; versus untreated) [%]	Number of Infect Tobacco Plants, 0 grade [2, 6] [plant]	Number of Infect Tobacco Plants, 1 grade [2, 6] [plant]	Number of Infect Tobacco Plants, 3 grade [2, 6] [plant]	Number of Infect Tobacco Plants, 5 grade [2, 6] [plant]	Number of Infect Tobacco Plants, 7 grade [2, 6] [plant]	Number of Infect Tobacco Plants, 9 grade [2, 6] [plant]	Control effect ([2]; tobacco, TMV, 21 days, versus H2O control) [%]	Disease index ([2]; tobacco, TMV, 21 days, H2O control 78.9)	induction of oxidative burst immune response [3]	intensity of callose accumulation compared with flg22 ([4]; 100 nM His-MP7 versus 1 μM flg22, FIG. 2)	callose accumulation of Arabidopsis ([4]; 100 nM, leaf infiltration 12 h, FIG. 2)	immune activity effect compared with single PAMP polypeptides (callose accumulation) ([4]; all at 100 nM, flg22, nlp20, elf18, pip1, pep1, csp22, flgII-28, FIG. 3)	bacterium growth index ([5]; 100 nM in bacterial solution, Arabidopsis leaves, FIG. 5, control 5.38)	reduction of growth amount of Pseudomonas syringae DC3000 ([5]; 100 nM, versus water control)
TP10	0.378	Yes																
His-MP7: heptapeptide fusion protein, SEQ ID NO: 15: elf18, csp22, flg22, flgII-28, nlp20, pep1, pip1 in sequence, linkers GAG and AGA, HIS tag (protein, his-MP7) MGSSHHHHHHSSGLVPRGSHMASMTGGQQMGRDPNSSSVDKLSKEKFERTKPHVNVGTIGGAGAVGTVKWFNAEKGFGFITPDDGAGAQRLSTGSRINSAKDDAAGLQIAGAGESTNILQRMRELAVQSRNDSNSATDREAGAGAIMYSWYFPKDSPVTGLGHRAGAATKVKAKQRGKEKVSSGRPGQHNAGARLASGPSPRGRGH			1.9	83.6	1	11	6	2	0	0	72.5	21.7	could induce the oxidative burst immune response	equivalent to that induced by 1 μM PAMP polypeptide flg22	obviously induced	superior to those of all the PAMP polypeptides; also recorded: superior to that of a single PAMP polypeptide	4.05	≥ 10
